Experimental data: patent US20080057063A1 (published 2008)
Residue numbers refer to the chain shown, from its start. Read-outs that look alike come from different tables or passages of the source.

B1: sc 264 RAD (antibody, V domains shown)
VH: QVQLQESGPGLVKPSQTLSLTCTVSGGSISSGGYYWSWIRQHPGKGLEWIGYIYYSGRTYNNPSLKSRVTISVDTSKNQFSLKLSSVTAADTAVYYCARVATGRADYHFYAMDVWGQGTTVTVSS
VL: SYELTQPSSVSVSPGQTARITCSGDVLAKKSARWFHQKPGQAPVLVIYKDSERPSGIPERFSGSSSGTTVTLTISGAQVEDEAAYYCYSAADNNLVFGGGTKLTVL
notes: Variable domains only
B2: sc 188 (antibody, V domains shown)
VH: QVQLQESGPGLVKPSQTLSLTCTVSGGSISSGVYYWTWIRQHPGNGLEWIGYIYYSGSTSYNPSLKSRVTISVDTSKKQFSLNLTSVTAADTAVYYCAREGPLRGDYYYGLDVWGQGTTVTVSS
VL: EIVLTQSPGTLSLSPGERATLSCRAGQTISSRYLAWYQQKPGQAPRPLIYGASSRATGIPDRFSGSGSGTDFTLTISRLEPEDFAVYYCQQYGSSPRTFGQGTKVEIK
B3: sc 188 SDM (antibody, V domains shown)
VH: B2 VH with N83K
VL: B2 VL
notes: Variable domains only
B4: sc 133 (antibody, V domains shown)
VH: QVQLVQSGAEVKKPGASVKVSCKASGYTFTGYYMHWVRQAPGQGLEWMGWINPKSGDTNYAQKFQGRVTLTRDTSTSTAYMELSRLRSDDTAVYYCARRLDVWGQGTTVTVSS
VL: QSVLTQPPSVSAAPGQKVTISCSGSSSNIGNNYVSWYQQLPGTAPKLLIYDNNKRPSGIPDRFSGSKSGTSATLGITGLQTGDEADYYCGTWNSSLSAGYVFGTGTKVTV

How the values were obtained:
[1] = molecular target: T1, human αVβ6 integrin on cells (human, UniProt P06756 31-1048; P18564 22-788); experiment: cell-based or functional assay
[2] = molecular target: T1, human αVβ6 integrin on cells; experiment: FACS, 293T-αVβ6 cells, antibody at 5 ug/ml
[3] = molecular target: T1, human αVβ6 integrin on cells; experiment: FACS, 293T-αVβ6 cells, antibody at 1.25 ug/ml
[4] = molecular target: T2, α5β1 integrin (on K562 cells) (UniProt P08648 42-1049; P05556 21-798, limits assumed); experiment: cell-based or functional assay
[5] = molecular target: T1, human αVβ6 integrin on cells; experiment: FACS, 293T-αVβ6 cells, antibody at 20 ug/ml
[6] = molecular target: T3, α4β1 integrin (on J6.77 cells) (UniProt P13612 34-1032; P05556 21-798, limits assumed); experiment: cell-based or functional assay
[7] = molecular target: T1, human αVβ6 integrin on cells; experiment: FACS titration on K562 cells expressing human αVβ6 (as Example 18)
[8] = molecular target: T1, human αVβ6 integrin on cells; experiment: FACS titration on K562 cells expressing human αVβ6 (as Example 18); 95% CI ±15.9 pM
[9] = molecular target: T1, human αVβ6 integrin on cells; experiment: cell-based or functional assay; remark: listed apart in the source
cynomolgus αVβ6 on cells = molecular target: T4, cynomolgus αVβ6 on cells (cynomolgus, UniProt A0A2K5WCD3 31-1048; A0A2K5TZ36 22-787); experiment: FACS, HEK-293 transfected with cynomolgus αV and β6
T4 construct: whole, on cells; also called macaque αVβ6; Mac AVB6

[10] = molecular target: T1, human αVβ6 integrin on cells; experiment: cell-based or functional assay; remark: listed apart in the source
soluble αVβ6 = molecular target: T5, soluble αVβ6 (human, UniProt P06756 31-992; P18564 22-709); experiment: Biacore, mAb captured on anti-human IgG, soluble αVβ6 injected, 1:1 fit
T5 construct: extracellular domain; also called soluble αVβ6 protein; soluble antigen

[11] = molecular target: T1, human αVβ6 integrin on cells; experiment: FACS titration on K562 cells expressing human αVβ6; 95% CI ±22.7 pM
[12] = molecular target: T2, α5β1 integrin (on K562 cells); experiment: cell-based or functional assay; remark: listed apart in the source
[13] = molecular target: T3, α4β1 integrin (on J6.77 cells); experiment: cell-based or functional assay; remark: listed apart in the source
[14] = molecular target: T1, human αVβ6 integrin on cells; experiment: FMAT, HEK 293 cells overexpressing αVβ6, supernatant
[15] = molecular target: T6, mouse αV (HEK-293 cells transfected with mouse αV alone) (mouse, UniProt P43406 31-1044); experiment: FACS, HEK-293 transfected with mouse αV
T6 construct: whole, on cells; Single chain transfected into HEK-293 cells; also called Mouse alphaV

[16] = molecular target: T7, human αV on parental A375M cells, which express αVβ3 and αVβ5, but not αVβ6 (human, UniProt P06756 31-1048); experiment: cell-based or functional assay
[17] = molecular target: T7, human αV on parental A375M cells, which …; experiment: FACS, parental A375M cells (αVβ3, αVβ5)

T7 sequence (P06756 31-1048 A375M): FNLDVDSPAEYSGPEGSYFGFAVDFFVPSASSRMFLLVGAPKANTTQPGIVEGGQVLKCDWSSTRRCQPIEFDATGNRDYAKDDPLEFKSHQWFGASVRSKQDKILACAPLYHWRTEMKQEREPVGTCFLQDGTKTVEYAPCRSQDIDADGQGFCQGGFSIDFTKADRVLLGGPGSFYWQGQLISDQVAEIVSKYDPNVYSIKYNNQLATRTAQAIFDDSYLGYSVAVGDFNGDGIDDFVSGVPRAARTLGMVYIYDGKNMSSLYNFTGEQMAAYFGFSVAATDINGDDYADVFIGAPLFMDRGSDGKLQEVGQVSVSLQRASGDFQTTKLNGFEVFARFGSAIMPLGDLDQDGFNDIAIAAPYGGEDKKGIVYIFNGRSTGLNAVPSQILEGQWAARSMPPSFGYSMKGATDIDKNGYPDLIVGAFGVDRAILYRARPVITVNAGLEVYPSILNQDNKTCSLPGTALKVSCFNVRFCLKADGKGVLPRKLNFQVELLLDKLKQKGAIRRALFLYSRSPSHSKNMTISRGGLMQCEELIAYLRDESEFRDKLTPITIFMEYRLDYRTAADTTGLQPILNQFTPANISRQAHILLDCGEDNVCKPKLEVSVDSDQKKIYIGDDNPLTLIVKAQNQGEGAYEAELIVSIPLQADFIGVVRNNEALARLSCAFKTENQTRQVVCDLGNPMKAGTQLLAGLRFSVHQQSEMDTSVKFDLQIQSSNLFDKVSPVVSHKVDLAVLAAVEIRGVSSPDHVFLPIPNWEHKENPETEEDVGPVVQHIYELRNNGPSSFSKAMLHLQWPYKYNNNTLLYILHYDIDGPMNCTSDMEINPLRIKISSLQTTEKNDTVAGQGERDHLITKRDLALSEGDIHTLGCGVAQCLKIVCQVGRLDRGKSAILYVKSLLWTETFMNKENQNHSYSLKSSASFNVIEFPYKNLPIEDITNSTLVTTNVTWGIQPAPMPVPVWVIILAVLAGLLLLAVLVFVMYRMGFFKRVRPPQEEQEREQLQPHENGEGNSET
T1 sequence (P06756 31-1048, chain 1 of 2): as the sequence (P06756 31-1048 A375M) above, with M345A counted along it
T1 sequence (P18564 22-788, chain 2 of 2): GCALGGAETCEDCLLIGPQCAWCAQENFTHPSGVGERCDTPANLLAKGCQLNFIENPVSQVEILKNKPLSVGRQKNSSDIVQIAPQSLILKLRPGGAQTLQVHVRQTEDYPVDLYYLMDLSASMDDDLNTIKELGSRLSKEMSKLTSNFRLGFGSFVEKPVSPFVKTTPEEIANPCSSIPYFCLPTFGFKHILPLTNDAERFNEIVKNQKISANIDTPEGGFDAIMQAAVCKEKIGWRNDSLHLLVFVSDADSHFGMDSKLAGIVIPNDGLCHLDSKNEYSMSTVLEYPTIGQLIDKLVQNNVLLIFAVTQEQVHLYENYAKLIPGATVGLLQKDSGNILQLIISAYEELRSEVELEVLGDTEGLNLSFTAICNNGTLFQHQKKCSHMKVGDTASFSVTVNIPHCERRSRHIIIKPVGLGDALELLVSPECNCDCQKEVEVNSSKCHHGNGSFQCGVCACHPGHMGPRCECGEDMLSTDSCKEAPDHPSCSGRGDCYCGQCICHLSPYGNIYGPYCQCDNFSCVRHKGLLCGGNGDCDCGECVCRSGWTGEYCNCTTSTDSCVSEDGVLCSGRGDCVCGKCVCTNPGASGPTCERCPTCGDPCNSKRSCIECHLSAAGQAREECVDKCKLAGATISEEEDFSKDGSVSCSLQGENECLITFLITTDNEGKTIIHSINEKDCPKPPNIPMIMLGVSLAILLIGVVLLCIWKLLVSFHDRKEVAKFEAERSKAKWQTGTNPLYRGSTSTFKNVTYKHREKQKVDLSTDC
T2 sequence (P08648 42-1049 limits assumed, chain 1 of 2): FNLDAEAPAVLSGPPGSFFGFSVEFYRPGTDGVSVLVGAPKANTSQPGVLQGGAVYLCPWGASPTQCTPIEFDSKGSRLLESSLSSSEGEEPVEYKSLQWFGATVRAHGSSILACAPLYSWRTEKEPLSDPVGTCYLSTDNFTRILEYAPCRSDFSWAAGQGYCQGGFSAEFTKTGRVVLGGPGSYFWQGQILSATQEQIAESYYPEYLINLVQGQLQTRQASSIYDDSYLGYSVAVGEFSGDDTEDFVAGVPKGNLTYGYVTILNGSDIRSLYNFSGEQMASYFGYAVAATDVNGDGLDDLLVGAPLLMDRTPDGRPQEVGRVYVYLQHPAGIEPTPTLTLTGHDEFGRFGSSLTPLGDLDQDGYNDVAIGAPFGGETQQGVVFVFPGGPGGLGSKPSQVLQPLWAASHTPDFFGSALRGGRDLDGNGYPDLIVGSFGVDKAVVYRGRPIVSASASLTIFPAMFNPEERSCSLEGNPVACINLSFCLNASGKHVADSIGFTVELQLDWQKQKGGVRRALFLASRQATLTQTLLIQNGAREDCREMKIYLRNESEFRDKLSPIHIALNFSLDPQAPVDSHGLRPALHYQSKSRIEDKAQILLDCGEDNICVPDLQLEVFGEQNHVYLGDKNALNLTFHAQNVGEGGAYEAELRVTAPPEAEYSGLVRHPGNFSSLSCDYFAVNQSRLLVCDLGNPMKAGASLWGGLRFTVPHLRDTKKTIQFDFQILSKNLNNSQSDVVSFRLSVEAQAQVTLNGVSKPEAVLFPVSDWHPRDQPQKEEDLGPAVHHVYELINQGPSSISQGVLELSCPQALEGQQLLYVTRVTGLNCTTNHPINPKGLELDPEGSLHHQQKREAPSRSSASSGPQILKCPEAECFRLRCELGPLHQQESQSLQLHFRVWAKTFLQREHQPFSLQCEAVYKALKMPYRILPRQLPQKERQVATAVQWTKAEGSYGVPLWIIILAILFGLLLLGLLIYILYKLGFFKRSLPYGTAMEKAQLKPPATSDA
T2 sequence (P05556 21-798 limits assumed, chain 2 of 2): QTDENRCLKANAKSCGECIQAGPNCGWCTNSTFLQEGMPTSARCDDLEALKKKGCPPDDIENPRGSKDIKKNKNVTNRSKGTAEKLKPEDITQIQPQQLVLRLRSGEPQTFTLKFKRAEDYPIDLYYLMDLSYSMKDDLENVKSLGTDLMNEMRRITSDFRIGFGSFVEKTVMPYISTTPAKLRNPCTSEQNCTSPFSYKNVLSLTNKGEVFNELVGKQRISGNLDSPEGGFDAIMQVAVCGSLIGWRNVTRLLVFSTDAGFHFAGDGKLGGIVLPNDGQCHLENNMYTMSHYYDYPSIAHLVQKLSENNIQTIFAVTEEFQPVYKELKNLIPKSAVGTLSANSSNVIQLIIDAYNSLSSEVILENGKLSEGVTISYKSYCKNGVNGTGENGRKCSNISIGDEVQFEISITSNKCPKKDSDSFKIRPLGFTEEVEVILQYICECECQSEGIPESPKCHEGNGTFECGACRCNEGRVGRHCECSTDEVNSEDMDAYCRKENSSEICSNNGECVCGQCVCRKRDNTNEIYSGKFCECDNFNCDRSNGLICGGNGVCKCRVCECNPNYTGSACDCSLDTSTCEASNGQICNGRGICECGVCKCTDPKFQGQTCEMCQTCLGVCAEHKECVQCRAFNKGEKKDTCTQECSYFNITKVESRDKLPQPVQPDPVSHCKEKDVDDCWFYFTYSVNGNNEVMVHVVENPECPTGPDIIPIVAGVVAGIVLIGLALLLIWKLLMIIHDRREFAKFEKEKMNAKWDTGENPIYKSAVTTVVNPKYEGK
T6 sequence (P43406 31-1044): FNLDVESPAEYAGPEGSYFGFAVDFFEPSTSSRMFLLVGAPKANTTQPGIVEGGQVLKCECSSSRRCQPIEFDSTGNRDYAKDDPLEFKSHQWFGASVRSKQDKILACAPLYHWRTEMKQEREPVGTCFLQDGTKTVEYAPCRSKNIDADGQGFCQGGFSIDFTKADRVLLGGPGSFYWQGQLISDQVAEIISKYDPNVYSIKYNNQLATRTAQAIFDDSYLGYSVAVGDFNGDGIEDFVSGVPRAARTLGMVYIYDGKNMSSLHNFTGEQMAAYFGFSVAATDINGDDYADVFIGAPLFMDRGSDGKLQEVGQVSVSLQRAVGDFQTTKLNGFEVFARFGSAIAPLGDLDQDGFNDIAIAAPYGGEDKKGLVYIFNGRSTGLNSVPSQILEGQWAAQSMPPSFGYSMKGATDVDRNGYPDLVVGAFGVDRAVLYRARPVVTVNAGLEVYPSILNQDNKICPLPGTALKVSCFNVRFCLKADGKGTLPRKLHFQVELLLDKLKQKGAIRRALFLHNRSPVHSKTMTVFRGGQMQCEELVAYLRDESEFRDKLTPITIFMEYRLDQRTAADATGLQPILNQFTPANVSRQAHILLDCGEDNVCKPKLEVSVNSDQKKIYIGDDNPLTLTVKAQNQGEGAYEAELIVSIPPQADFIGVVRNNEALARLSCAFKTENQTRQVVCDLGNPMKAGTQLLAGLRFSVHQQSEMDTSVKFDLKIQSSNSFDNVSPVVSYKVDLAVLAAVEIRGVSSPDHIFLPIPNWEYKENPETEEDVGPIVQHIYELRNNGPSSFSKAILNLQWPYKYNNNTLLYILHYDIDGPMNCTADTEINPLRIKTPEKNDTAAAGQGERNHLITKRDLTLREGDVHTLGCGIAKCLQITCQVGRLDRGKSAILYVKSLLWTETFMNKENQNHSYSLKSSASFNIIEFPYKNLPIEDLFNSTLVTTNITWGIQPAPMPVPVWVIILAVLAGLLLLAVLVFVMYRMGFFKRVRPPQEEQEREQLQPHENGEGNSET

Binder	IC50, n = 1 (HT29 adhesion to TGFβLAP) [1] [µg/mL]	IC50, n = 2 (HT29 adhesion to TGFβLAP) [1] [µg/mL]	IC50, n = 3 (HT29 adhesion to TGFβLAP) [1] [µg/mL]	Geometric Mean Shift [2]	Geometric Mean Shift [3]	% Inhibition (K562 adhesion to fibronectin) [4] [%]	Geometric Mean Shift [5]	Percent Inhibition (J6.77 adhesion to CS-1 peptide of fibronectin, 5 ug/ml) [6] [%]	Percent Inhibition (K562 adhesion to FN9-10 peptide of fibronectin, 5 µg/ml) [12] [%]	Percent Inhibition (J6.77 adhesion to CS-1 peptide of fibronectin, 5 ug/ml) [13] [%]	other results
B1	0.013	0.013	0.039	6840	4890	6	7240	-2			Kd [7]: < 0.05 nM; Kd [8]: 0.0463 nM
B2	0.125	0.157	0.064			-5		2	5	-10	Estimated IC50, n = 1 (HT29 adhesion to TGFβLAP) [9]: 0.041 µg/mL; Estimated IC50, n = 2 (HT29 adhesion to TGFβLAP) [9]: 0.026 µg/mL; GeoMean (cynomolgus αVβ6 on cells): 23.9; Assay 1 % Inhibition (HT29 adhesion to TGFβLAP) [10]: 99%; Assay 2 % Inhibition (HT29 adhesion to TGFβLAP) [10]: 103%; Average % Inhibition (HT29 adhesion to TGFβLAP) [10]: 101%; Kd (soluble αVβ6): 21.2 nM; Kd [11]: 0.0519 nM; FMAT Count [14]: 127; FMAT FL1 [14]: 628; FMAT FL1 × Count [14]: 79800
B3	0.022	0.024	0.067	6820	4530	-8	6760	-6			
B4									-12	-15	percent of cells shifted [15]: 4%; Percent Inhibition (A375M adhesion to osteopontin peptide, 5 µg/ml) [16]: 3%; % Cells Shifted [17]: 24%; GeoMean [17]: 1.79
